In patent US20240226274A1:
pKd: −log10 of the molar value. Values joined by “and” are separate entries in the source; they are usually repeats but may differ in a detail not shown here. Equal entries are not always repeated.

How the values were obtained:
[1] = target: RSV F DS-Cav1 (respiratory syncytial virus); experiment: BLI; antibody on Protein A sensor; F protein heated 1 h at 55 C
[2] = target: RSV F design R-1b (respiratory syncytial virus (A2 strain)); experiment: as above
[3] = target: RSV F DS-Cav1 (respiratory syncytial virus); experiment: BLI; antibody on Protein A sensor, F protein in solution; RT, not heated
[4] = target: RSV F design R-1b (respiratory syncytial virus (A2 strain)); experiment: as above
[5] = target: postfusion RSV A2 F (respiratory syncytial virus A2) (UniProt P03420); experiment: BLI; antibody on Protein A sensor; F protein heated 1 h at 60 C
[6] = target: postfusion RSV A2 F (respiratory syncytial virus A2) (UniProt P03420); experiment: BLI; antibody on Protein A sensor, F protein in solution; RT, not heated
[7] = target: hMPV F design M-104 (human metapneumovirus) (UniProt Q6WB98); experiment: BLI; antibody on Protein A sensor; F protein heated 1 h at 55 C
[8] = target: hMPV F 115-BV (human metapneumovirus) (UniProt Q6WB98); experiment: BLI; antibody on Protein A sensor, F protein in solution; RT, not heated
[9] = target: hMPV F design M-104 (human metapneumovirus) (UniProt Q6WB98); experiment: as above
[10] = target: RSV F DS-Cav1 (respiratory syncytial virus); experiment: BLI; antibody on Protein A sensor; F protein heated 1 h at 60 C

| Substance | kon [1] | pKd [2] | koff [2] | kon [2] | kon [3] | pKd [4] | koff [4] | kon [4] | kon [5] | pKd [3] | kon [6] | kon [7] | kon [8] | kon [9] | kon [10] |
| --- | --- | --- | --- | --- | --- | --- | --- | --- | --- | --- | --- | --- | --- | --- | --- |
| antibody AM14 | 50300 M⁻¹ s⁻¹ and 58500 M⁻¹ s⁻¹ and 50100 M⁻¹ s⁻¹ | 9.87 and 9.88 | 1.15e-05 s⁻¹ and 1.31e-05 s⁻¹ | 88700 M⁻¹ s⁻¹ and 86300 M⁻¹ s⁻¹ and 99100 M⁻¹ s⁻¹ | 161000 M⁻¹ s⁻¹ and 204000 M⁻¹ s⁻¹ and 181000 M⁻¹ s⁻¹ | 9.30 and 9.31 and 9.25 | 0.000111 s⁻¹ and 0.000124 s⁻¹ and 0.000101 s⁻¹ | 203000 M⁻¹ s⁻¹ and 227000 M⁻¹ s⁻¹ and 219000 M⁻¹ s⁻¹ |  |  |  |  |  |  |  |
| antibody 131-2A |  |  |  |  | 8290 M⁻¹ s⁻¹ and 9190 M⁻¹ s⁻¹ and 17600 M⁻¹ s⁻¹ | 8.19 and 8.13 and 7.92 | 0.00031 s⁻¹ and 0.000353 s⁻¹ and 0.0004 s⁻¹ | 47900 M⁻¹ s⁻¹ and 47500 M⁻¹ s⁻¹ and 33700 M⁻¹ s⁻¹ | 522000 M⁻¹ s⁻¹ and 482000 M⁻¹ s⁻¹ and 452000 M⁻¹ s⁻¹ | 6.88 and 7.46 and 7.76 | 400000 M⁻¹ s⁻¹ and 409000 M⁻¹ s⁻¹ and 485000 M⁻¹ s⁻¹ |  |  |  |  |
| antibody MPE8 |  |  |  |  |  |  |  |  |  |  |  | 36600 M⁻¹ s⁻¹ and 21700 M⁻¹ s⁻¹ and 25100 M⁻¹ s⁻¹ | 14500 M⁻¹ s⁻¹ and 15200 M⁻¹ s⁻¹ and 10900 M⁻¹ s⁻¹ | 40100 M⁻¹ s⁻¹ and 32400 M⁻¹ s⁻¹ and 42100 M⁻¹ s⁻¹ |  |
| antibody D25 | 213000 M⁻¹ s⁻¹ and 160000 M⁻¹ s⁻¹ and 142000 M⁻¹ s⁻¹ |  |  | 156000 M⁻¹ s⁻¹ and 120000 M⁻¹ s⁻¹ and 121000 M⁻¹ s⁻¹ | 121000 M⁻¹ s⁻¹ and 187000 M⁻¹ s⁻¹ and 149000 M⁻¹ s⁻¹ |  |  | 179000 M⁻¹ s⁻¹ and 144000 M⁻¹ s⁻¹ and 151000 M⁻¹ s⁻¹ |  |  |  |  |  |  | 115000 M⁻¹ s⁻¹ and 135000 M⁻¹ s⁻¹ and 132000 M⁻¹ s⁻¹ |
